Measured values taken from patent publication US20240279345A1, “ALPHA 5 BETA 1 INTEGRIN BINDING AGENTS AND USES THEREOF” (PASITHEA THERAPEUTICS CORP., priority 2021, published 2024).

Molecular target: T1, recombinant human α5β1 integrin (rh-α5β1) (Homo sapiens, UniProt P05556+P08648)
T1 construct: purchased R&D Systems 3230-A5
Assay: Plate-based ELISA reactivity to rh-α5β1
Assay type: binding
Settings: selected for further characterization among α5 specific hybridomas (28 selected)
Method: The 249 positive hybridoma supernatants selected as described in Example 1 were screened for reactivity to rh-α5β1 in a plate-based ELISA. Immulon4 HBX ELISA 96-well plates (Thermo Fisher Scientific, Waltham, MA, cat. no. 3855) were coated with rh-α5β1 (R&D Systems, Minneapolis, MN 55413, cat. no. 3230-A5), at 1 μg/mL in PBS supplemented with 0.5 mM MgCl2, MnCl2 and CaCl2 and incubated overnight at 4° C. Plates were washed 3 times with Wash Buffer (1× Tris Buffered Saline containing 0.05% Tween20), blocked with 2% BSA in 1×TBS (made from 10× Thermo Scientific Blocker BSA (10×) in TBS; Thermo Fisher Scientific, Waltham, MA, cat. no. 37520) for 2 hours at room temperature (RT) then incubated with hybridoma supernatants diluted 1:10 with Standard Diluent (2% BSA, 1×TBS, 0.05% Tween20). Following a 1 hour incubation at RT, wells were washed 3 times, incubated with biotinylated goat anti-mouse secondary antibody at 1:8000 dilution (Invitrogen, Carlsbad, CA, cat. no. 62-6540) for 1 hour, washed 3 times, then incubated for 30 minutes with poly-HRP Streptavidin (Thermo Fisher Scientific, Waltham, MA, cat. no. N200), washed 4 times, incubated with TMB (Thermo Fisher Scientific, Waltham, MA, cat. no. N301) for 5-10 minutes, followed by addition of ELISA Stop Solution (Invitrogen, Carlsbad, CA, cat. no. SS04). Absorbance 450 nm was measured.

T1 sequence (P08648 42-894 limits assumed): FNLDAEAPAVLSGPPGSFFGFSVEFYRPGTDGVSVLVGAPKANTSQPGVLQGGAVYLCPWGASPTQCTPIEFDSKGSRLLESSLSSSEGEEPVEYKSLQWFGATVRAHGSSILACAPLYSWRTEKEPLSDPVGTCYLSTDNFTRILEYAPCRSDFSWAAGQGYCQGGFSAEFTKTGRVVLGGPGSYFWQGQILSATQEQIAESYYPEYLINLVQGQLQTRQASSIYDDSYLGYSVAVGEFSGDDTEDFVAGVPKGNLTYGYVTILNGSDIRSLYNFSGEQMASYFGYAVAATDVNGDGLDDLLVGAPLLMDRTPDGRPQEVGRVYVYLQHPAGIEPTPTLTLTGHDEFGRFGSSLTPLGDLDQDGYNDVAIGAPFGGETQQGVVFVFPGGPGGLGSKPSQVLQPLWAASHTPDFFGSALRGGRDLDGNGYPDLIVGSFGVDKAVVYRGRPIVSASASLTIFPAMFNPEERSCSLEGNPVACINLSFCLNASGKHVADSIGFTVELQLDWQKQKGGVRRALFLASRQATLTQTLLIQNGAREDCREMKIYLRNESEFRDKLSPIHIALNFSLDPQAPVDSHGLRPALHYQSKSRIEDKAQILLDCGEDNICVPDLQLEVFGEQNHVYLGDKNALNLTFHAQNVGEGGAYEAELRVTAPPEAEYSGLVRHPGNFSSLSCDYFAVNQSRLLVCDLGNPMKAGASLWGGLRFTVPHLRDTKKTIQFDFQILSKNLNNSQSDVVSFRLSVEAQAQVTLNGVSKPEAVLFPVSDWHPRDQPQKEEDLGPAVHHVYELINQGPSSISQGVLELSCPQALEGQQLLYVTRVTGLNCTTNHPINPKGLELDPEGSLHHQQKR
T1 sequence (P08648 895-995 limits assumed): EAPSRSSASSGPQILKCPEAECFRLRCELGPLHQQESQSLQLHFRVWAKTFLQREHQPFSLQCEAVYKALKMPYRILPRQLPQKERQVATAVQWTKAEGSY
T1 sequence (P05556 21-728 limits assumed): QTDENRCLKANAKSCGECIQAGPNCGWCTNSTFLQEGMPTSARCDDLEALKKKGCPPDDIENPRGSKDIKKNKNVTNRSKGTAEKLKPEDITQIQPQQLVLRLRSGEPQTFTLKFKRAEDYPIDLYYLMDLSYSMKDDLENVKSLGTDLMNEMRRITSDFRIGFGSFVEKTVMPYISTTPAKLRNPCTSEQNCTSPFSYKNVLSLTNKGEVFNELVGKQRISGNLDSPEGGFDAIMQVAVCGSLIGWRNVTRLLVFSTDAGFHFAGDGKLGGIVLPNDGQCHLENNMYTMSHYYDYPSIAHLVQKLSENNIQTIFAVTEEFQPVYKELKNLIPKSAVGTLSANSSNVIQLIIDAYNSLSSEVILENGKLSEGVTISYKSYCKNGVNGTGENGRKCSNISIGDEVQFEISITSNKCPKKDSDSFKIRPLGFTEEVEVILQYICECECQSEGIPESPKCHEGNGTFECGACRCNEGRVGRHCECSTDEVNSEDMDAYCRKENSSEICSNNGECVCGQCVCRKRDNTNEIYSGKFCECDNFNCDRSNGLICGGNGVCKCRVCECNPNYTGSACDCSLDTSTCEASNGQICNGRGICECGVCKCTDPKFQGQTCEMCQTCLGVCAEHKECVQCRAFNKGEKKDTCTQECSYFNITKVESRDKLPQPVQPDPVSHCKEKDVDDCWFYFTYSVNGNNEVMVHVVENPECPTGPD

B1: A2-7A05: anti-α5β1 antibody, VH SEQ ID NO:77, VL SEQ ID NO:78; tested as mouse hybridoma antibody and as human IgG4 chimera (antibody, V domains shown)
VH: QVQLQQPGAELVKPGASVKLSCKASGYTFTIYWINWVKQRPGQGLEWIGKIYPGSISTDYNEKFKSKATLTVDTSSSTAYMQLSSLTSDDSAVYYCAITGTGGLAYWGQGTLVTVSA
VL: ENVLTQSPAIMSASLGEKVTMTCRASSSVNYMYWYQQKSDASPKLWIYFTSSLAPGVPGRFSGSGSGNSYSLTISTMEGEDAATYYCQQFTTSPFTFGSGTKLEIK
modifications: A2-7A05 VH Sequence; A2-7A05 VL Sequence
notes: tested as mouse hybridoma antibody and as human IgG4 chimera
Selected Human α5 Specific: Yes
